Test results reported in article PMC7888926.

Experiments:
GST-His6-2×HBD = GST-His6-2×HBD (UniProt O60930); test: BLI; conditions: EMSA: 30 nM probe, 20 mM Hepes pH 7.0, 100 mM NaCl, 5% glycerol, 10 mM DTT, 0.5 mM EDTA, 5 ug/ml salmon sperm DNA, 25°C 30 min; BLI: 20 mM Hepes-NaOH pH 7.5 …
GST-His6-HBD = target: T1, GST-His6-HBD (UniProt O60930); test: BLI; conditions: EMSA: 30 nM probe, 20 mM Hepes pH 7.0, 100 mM NaCl, 5% glycerol, 10 mM DTT, 0.5 mM EDTA, 5 ug/ml salmon sperm DNA, 25°C 30 min; BLI: 20 mM Hepes-NaOH pH 7.5 …
T1 sequence (O60930 whole entry, looked up): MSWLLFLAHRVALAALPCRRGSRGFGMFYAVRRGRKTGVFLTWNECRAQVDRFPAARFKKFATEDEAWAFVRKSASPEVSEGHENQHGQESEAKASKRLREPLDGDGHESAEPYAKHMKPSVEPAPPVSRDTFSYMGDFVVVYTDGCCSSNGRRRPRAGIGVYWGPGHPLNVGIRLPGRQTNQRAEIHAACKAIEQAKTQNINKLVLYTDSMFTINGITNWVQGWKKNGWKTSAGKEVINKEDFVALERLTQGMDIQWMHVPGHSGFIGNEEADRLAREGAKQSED

AGCGTGCCGTGCAACAACATTACAC / GUGUAAUGUUGUUGCACGGCACGCU [biotin DNA-RNA hybrid 25-mer (BLI)]
Kd (GST-His6-2×HBD): 10.4 nM
Kd (GST-His6-HBD): 16.5 nM
